The star is where a group is joined. Mu = morpholinocarbonyl cap, O=C(N1CCOCC1)*; Dox = doxorubicin
Columns and labels:
PSA = PSA (Homo sapiens, UniProt P07288); conditions: incubation with enzymatically active PSA, HPLC detection; cited from earlier work
[1] = photophysical properties of pyropheophorbide acid (1O2 yield); assay type: physicochemical

PSA, sequence (P07288 25-261): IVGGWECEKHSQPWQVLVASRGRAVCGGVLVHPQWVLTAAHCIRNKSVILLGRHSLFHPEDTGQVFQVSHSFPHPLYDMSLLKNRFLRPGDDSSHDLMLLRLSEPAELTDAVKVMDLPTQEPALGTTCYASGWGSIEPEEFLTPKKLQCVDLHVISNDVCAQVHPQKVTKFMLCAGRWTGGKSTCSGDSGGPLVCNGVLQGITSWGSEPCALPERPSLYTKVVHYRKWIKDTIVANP

| Compound | hydrolysis by PSA (PSA) | 1O2 yield [1] [%] |
| --- | --- | --- |
| Mu-HS SKLQ(SEQ ID NO:13)-Leu-Dox (Mu-HSSKLQL-Dox) | resulted in production of Leu-Dox | – |
| Ac-HSSKLQ(SEQ ID NO:13)-Dox (Ac-HSSKLQ-Dox) | unable to hydrolyze | – |
| C=Cc1c(C)c2cc3nc(c4c5[nH]c(cc6nc(cc1[nH]2)C(C)=C6CC)c(C)c5C(=O)C4)[C@@H](CCC(=O)O)[C@@H]3C [Pyropheophorbide acid, pyropheophorbide acid] | – | 45 |

— patent US8133482B2, “Activatable photodynamic therapy agents” (The Trustees of the University of Pennsylvania, priority 2003, dated 2012)
